Test [1] deals with HIV-1 MN gp120 (HIV-1 MN) (UniProt P05877). The test is described as follows: ELISA of hybridoma supernatant on membranes of MN-infected against uninfected H9 cells.
Test [2] has the same target. Put plainly: RIA of hybridoma supernatant on live HIV-1MN-infected against uninfected H9 cells, 125I rabbit anti-mouse IgG.
For test [3], the target named is HIV-1 RF gp120 (HIV-1 RF) (UniProt P04579). The test is described as follows: cell-based or functional assay.
In test [4] the target is HIV-1 IIIB gp120 (HIV-1 IIIB) (UniProt P03375). The test is described as follows: cell-based or functional assay.
Test [5] addresses HIV-1 MN gp120 (HIV-1 MN) (UniProt P05877). Put plainly: cell-based or functional assay.

Where only a bound is given, the exact number is not on record here.

Sequence of UniProt P04579 (P04579 32-865): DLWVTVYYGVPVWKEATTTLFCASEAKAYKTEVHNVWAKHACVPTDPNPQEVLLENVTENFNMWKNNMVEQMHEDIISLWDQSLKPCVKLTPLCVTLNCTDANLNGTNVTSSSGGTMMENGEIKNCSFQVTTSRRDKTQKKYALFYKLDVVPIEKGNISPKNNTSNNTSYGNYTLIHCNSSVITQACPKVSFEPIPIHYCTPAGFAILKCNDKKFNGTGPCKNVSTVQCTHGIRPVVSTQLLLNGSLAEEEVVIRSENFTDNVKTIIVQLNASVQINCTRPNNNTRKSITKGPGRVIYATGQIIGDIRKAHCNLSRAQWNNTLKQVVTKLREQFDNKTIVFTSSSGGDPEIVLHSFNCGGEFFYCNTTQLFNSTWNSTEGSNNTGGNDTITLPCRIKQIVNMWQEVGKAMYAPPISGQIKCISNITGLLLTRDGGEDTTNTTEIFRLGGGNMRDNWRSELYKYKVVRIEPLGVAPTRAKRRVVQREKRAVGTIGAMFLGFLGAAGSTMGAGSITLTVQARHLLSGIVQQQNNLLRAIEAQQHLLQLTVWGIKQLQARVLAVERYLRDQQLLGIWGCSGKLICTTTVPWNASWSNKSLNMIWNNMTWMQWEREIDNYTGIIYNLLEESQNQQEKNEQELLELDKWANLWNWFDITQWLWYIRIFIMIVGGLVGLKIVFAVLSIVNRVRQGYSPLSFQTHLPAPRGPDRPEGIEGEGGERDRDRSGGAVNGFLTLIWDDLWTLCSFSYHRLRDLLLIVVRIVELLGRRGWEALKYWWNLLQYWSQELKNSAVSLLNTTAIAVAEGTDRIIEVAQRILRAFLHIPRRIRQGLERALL
Sequence of UniProt P05877 (P05877 32-856): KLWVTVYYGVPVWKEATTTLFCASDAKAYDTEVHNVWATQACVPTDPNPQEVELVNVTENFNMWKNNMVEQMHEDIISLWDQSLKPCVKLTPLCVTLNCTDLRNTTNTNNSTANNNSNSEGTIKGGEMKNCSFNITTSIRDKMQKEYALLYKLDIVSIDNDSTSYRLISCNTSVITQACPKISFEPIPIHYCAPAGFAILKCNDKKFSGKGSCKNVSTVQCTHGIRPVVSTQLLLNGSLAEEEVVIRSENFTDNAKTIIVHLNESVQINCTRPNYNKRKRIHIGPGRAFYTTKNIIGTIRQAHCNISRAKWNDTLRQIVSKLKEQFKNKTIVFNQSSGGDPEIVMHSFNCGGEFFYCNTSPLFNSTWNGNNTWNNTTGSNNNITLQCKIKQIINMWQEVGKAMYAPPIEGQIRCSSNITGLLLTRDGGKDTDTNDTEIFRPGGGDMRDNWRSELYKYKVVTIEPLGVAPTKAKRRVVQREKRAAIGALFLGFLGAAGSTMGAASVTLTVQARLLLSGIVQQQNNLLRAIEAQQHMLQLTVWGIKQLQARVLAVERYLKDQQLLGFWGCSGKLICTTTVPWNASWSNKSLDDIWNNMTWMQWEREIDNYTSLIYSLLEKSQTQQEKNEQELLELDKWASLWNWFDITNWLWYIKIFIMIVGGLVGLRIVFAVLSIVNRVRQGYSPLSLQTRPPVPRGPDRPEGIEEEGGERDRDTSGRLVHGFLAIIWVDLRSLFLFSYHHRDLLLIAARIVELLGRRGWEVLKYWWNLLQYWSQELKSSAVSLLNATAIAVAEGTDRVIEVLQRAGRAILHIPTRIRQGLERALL

Take monoclonal antibody NM-01: in test [1], the ELISA ratio, infected cell membranes to uninfected cell membranes (Run 1) was found to be 5.76. In addition, in test [2], the RIA Ratio cpm inf/cpm uninf was 9.81. In test [3], this substance had an ID50, live RF virus, reverse transcriptase assay of 0.05 µg/mL; an ID50, syncytium formation by RF-infected cells of 4 µg/mL; a percent inhibition of syncytium formation by RF-infected cells at 25 µg antibody of 59%. In test [4], the ID50, live IIIB virus, MT-2 assay was found to be 0.1 µg/mL; the ID50, live IIIB virus, reverse transcriptase assay amounted to 0.1 µg/mL; the ID50, syncytium formation by IIIB-infected H9 cells with C8166 cells was found to be 3 µg/mL; the percent inhibition of syncytium formation by IIIB-infected cells at 25 µg antibody is 85%. Besides, in test [5], the ID50, live MN virus, MT-2 assay was found to be 2 µg/mL; the ID50, live MN virus, reverse transcriptase assay is less than 1 µg/mL; the ID50, syncytium formation by MN-infected H9 cells with C8166 cells is 2 µg/mL; the percent inhibition of syncytium formation by MN-infected cells at 25 µg antibody came to 85%.
